Results on two substances are retold here after publication PMC12186490, “Environmental pH controls antimicrobial production by human probiotic Streptococcus salivarius” (Journal of Bacteriology, 2025).

Assay [1] concerns the target NRPS regulator NrpR (amino acids 1-285), recombinant, untagged (Streptococcus salivarius K12). Briefly: SEC; Superdex 200 10/300 GL; 20 mM Tris-HCl pH 8.5, 200 mM NaCl, 1 mM TCEP, 5% glycerol; 1 mg/mL NrpR, room temperature; mass standards.
Assay [2] concerns the target fluorescein-labeled synthetic NRPS-inducing peptide (NIP) (Streptococcus salivarius K12). In words: fluorescence polarisation; 1 nM fluorescein-labeled NIP titrated with purified NrpR; 20 mM potassium phosphate, 75 mM NaCl, 2% DMSO, 1 mM EDTA, 0.0005% Tween 20; binding buffer adjusted to near neutral pH (pH 6.5 to 7.5) or pH 5.0. (In fluorescence polarisation assays a small probe gives low polarisation when free and higher when bound to something large.)

Assay [3] has as its target NRPS regulator NrpR (amino acids 1-285), recombinant, untagged (Streptococcus salivarius K12).

Broadly, the stoichiometry N is the number of molecules, sites or subunits per partner or assembly.

In the case of “NRPS regulator NrpR (amino acids 1-285), recombinant, untagged (receptor)”, the stoichiometry N in assay [1] turned out to be 2. In assay [2], this substance had a fold decrease in affinity against pH 5.5 of over 2 fold.

As to “fluorescein-labeled synthetic NRPS-inducing peptide (NIP)”, the sarD transcript level (qRT-PCR) in the nip* mutant with 100 nM synthetic NIP at pH 5.5 or 6.0, against the unsupplemented mutant; no significant induction at pH 6.5-7.5 or pH 5.0 in assay [3] was over 75 fold.
